Experiments:
Assay in all cases: cell-based or functional assay
[1] = molecular target: HIV-1 92TH021 envelope glycoprotein (Env) on pseudovirus (HIV-1)
[2] = molecular target: HIV-1 CMU02 envelope glycoprotein (Env) on pseudovirus (HIV-1)
[3] = molecular target: HIV-1 92UG005 envelope glycoprotein (Env) on pseudovirus (HIV-1)
[4] = molecular target: aMLV envelope protein on pseudovirus (negative control virus)
[5] = molecular target: HIV-1 92UG024 envelope glycoprotein (Env) on pseudovirus (HIV-1)
[6] = molecular target: HIV-1 MGRM-D-001 envelope glycoprotein (Env) on pseudovirus (HIV-1)
[7] = molecular target: HIV-1 MGRM-AG-005 envelope glycoprotein (Env) on pseudovirus (HIV-1)
[8] = molecular target: HIV-1 MGRM-D-018 envelope glycoprotein (Env) on pseudovirus (HIV-1)
[9] = molecular target: HIV-1 Env of isolate MG RM-A-005 (pseudovirus) (HIV-1)
[10] = molecular target: HIV-1 Env of isolate MGRM-AE-002 (pseudovirus) (HIV-1)
[11] = molecular target: HIV-1 Env of isolate 92WR020 (pseudovirus) (HIV-1)
[12] = molecular target: HIV-1 Env of isolate MGRM-Chronic-B-002 (HIV-1)
[13] = molecular target: HIV-1 Env of isolate MG RM-A-014 (pseudovirus) (HIV-1)
[14] = molecular target: HIV-1 Env of isolate 94 KE 105 (pseudovirus) (HIV-1)
[15] = molecular target: HIV-1 Env of isolate MGRM-Chronic-B-003 (HIV-1)
[16] = molecular target: HIV-1 Env of isolate MG RM-A-010 (pseudovirus) (HIV-1)
[17] = molecular target: HIV-1 Env of isolate 92UG037 (pseudovirus) (HIV-1)
[18] = molecular target: HIV-1 Env of isolate CAAN.A2 (HIV-1)
[19] = molecular target: HIV-1 Env of isolate MGRM-D-008 (subtype D), on pseudovirus (HIV-1)
[20] = molecular target: HIV-1 Env of isolate 94UG103 (pseudovirus) (HIV-1)
[21] = molecular target: HIV-1 Env of isolate 92WR021 (pseudovirus) (HIV-1)
[22] = molecular target: HIV-1 Env of isolate 92UG031 (pseudovirus) (HIV-1)
[23] = molecular target: HIV-1 Env of isolate 92UG024 (subtype D), on pseudovirus (HIV-1)
[24] = molecular target: HIV-1 Env of isolate MGRM-Chronic-B-004 (HIV-1)
[25] = molecular target: HIV-1 Env of isolate MG RM-A-011 (pseudovirus) (HIV-1)
[26] = molecular target: HIV-1 Env of isolate MGRM-AE-003 (pseudovirus) (HIV-1)
[27] = molecular target: HIV-1 Env of isolate 92TH021 (pseudovirus) (HIV-1)
[28] = molecular target: HIV-1 Env of isolate MG RM-A-012 (pseudovirus) (HIV-1)
[29] = molecular target: HIV-1 Env of isolate MGRM-D-002 (subtype D), on pseudovirus (HIV-1)
[30] = molecular target: HIV-1 Env of isolate CMU02 (pseudovirus) (HIV-1)
[31] = molecular target: HIV-1 Env of isolate 92BR020 (HIV-1)
[32] = molecular target: HIV-1 Env of isolate APV_13 (HIV-1)
[33] = molecular target: HIV-1 Env of isolate 92UG114 (subtype D), on pseudovirus (HIV-1)
[34] = molecular target: HIV-1 Env of isolate MGRM-AE-006 (pseudovirus) (HIV-1)
[35] = molecular target: HIV-1 Env of isolate MGRM-Chronic-B-001 (HIV-1)
[36] = molecular target: HIV-1 Env of isolate 93TH305 (HIV-1)
[37] = molecular target: HIV-1 Env of isolate 92WR024 (pseudovirus) (HIV-1)
[38] = molecular target: HIV-1 Env of isolate MGRM-D-001 (subtype D), on pseudovirus (HIV-1)
[39] = molecular target: HIV-1 92RW020 envelope glycoprotein (Env) on pseudovirus (HIV-1)
[40] = molecular target: HIV-1 Env of isolate 92UG046 (subtype D), on pseudovirus (HIV-1)
[41] = molecular target: HIV-1 Env of isolate MG RM-A-009 (pseudovirus) (HIV-1)
[42] = molecular target: HIV-1 Env of isolate 92RW008 (clade A), on pseudovirus (HIV-1)
[43] = molecular target: HIV-1 Env of isolate MG RM-A-006 (pseudovirus) (HIV-1)
[44] = molecular target: HIV-1 Env of isolate MG RM-A-007 (pseudovirus) (HIV-1)
[45] = molecular target: HIV-1 Env of isolate 92WR026 (pseudovirus) (HIV-1)
[46] = molecular target: HIV-1 Env of isolate MG RM-A-008 (pseudovirus) (HIV-1)
[47] = molecular target: HIV-1 Env of isolate VLGCA1 (pseudovirus) (HIV-1)
[48] = molecular target: HIV-1 Env of isolate 92UG005 (subtype D), on pseudovirus (HIV-1)
[49] = molecular target: HIV-1 Env of isolate 93UG077 (pseudovirus) (HIV-1)
[50] = molecular target: HIV-1 Env of isolate MGRM-AE-001 (pseudovirus) (HIV-1)
[51] = molecular target: HIV-1 92BR020 envelope glycoprotein (Env) on pseudovirus (HIV-1)
[52] = molecular target: HIV-1 Env of isolate MGRM-D-005 (subtype D), on pseudovirus (HIV-1)
[53] = molecular target: HIV-1 Env of isolate JRFL (HIV-1)
[54] = molecular target: HIV-1 Env of isolate 93WR029 (pseudovirus) (HIV-1)
[55] = molecular target: HIV-1 Env of isolate MGRM-AE-005 (pseudovirus) (HIV-1)
[56] = molecular target: HIV-1 Env of isolate APV_6 (HIV-1)
[57] = molecular target: HIV-1 Env of isolate MGRM-Chronic-B-008 (HIV-1)
[58] = molecular target: HIV-1 Env of isolate 92UG001 (subtype D), on pseudovirus (HIV-1)
[59] = molecular target: HIV-1 Env of isolate 98CN009 (subtype CRF07_BC), on pseudovirus (HIV-1)
[60] = molecular target: HIV-1 Env of isolate MG RM-A-013 (pseudovirus) (HIV-1)
[61] = molecular target: HIV-1 Env of isolate MGRM-D-003 (subtype D), on pseudovirus (HIV-1)
[62] = molecular target: HIV-1 Env of isolate 98CN006 (subtype CRF08 BC), on pseudovirus (HIV-1)
[63] = molecular target: HIV-1 Env of isolate APV_17 (HIV-1)
[64] = molecular target: HIV-1 Env of isolate 92RW009 (clade A), on pseudovirus (HIV-1)
[65] = molecular target: HIV-1 Env of isolate MGRM-D-004 (subtype D), on pseudovirus (HIV-1)
[66] = molecular target: HIV-1 Env of isolate MGRM-AE-004 (pseudovirus) (HIV-1)
[67] = molecular target: HIV-1 Env of isolate 6535.3 (HIV-1)

4995_E20 (PGT-142) (antibody), sequence (VH): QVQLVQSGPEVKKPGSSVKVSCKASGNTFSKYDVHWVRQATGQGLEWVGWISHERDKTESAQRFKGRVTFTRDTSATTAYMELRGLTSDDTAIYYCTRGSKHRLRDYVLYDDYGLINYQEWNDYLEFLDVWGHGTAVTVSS
4995_E20 (PGT-142) (antibody), sequence (VL): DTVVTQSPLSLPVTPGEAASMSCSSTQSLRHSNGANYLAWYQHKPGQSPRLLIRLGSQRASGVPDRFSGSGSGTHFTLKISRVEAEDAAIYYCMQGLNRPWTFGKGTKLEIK

PGT-121 monoclonal antibody gave an IC50, pseudovirus neutralization [1] greater than 10 mg/L, an IC50, pseudovirus neutralization [2] greater than 10 mg/L and an IC50, pseudovirus neutralization [3] greater than 10 mg/L. The IC50, pseudovirus neutralization [4] was greater than 10 mg/L and the IC50, pseudovirus neutralization [5] was greater than 10 mg/L.
PGT-122 monoclonal antibody showed an IC50, pseudovirus neutralization [1] greater than 10 mg/L, an IC50, pseudovirus neutralization [2] greater than 10 mg/L and an IC50, pseudovirus neutralization [3] greater than 10 mg/L. For the same substance, the IC50, pseudovirus neutralization [6] was 0.867 mg/L, the IC50, pseudovirus neutralization [7] was greater than 10 mg/L and the IC50, pseudovirus neutralization [8] was 0.0115 mg/L. For the same substance, the IC50, pseudovirus neutralization [4] was greater than 10 mg/L and the IC50, pseudovirus neutralization [5] was greater than 10 mg/L.
4995_E20 (PGT-142) (antibody) was tested, and the IC50 (µg/mL), pseudovirus neutralization [9] was 9.7 µg/mL, the IC50 (µg/mL), pseudovirus neutralization [10] was greater than 50 µg/mL and the IC50 (µg/mL), pseudovirus neutralization [11] was 31.5 µg/mL. For the same substance, the IC50 [12] was greater than 50 mg/L, the IC50 (µg/mL), pseudovirus neutralization [13] was 0.367 µg/mL and the IC50 (µg/mL), pseudovirus neutralization [14] was 0.19 µg/mL. It also gave an IC50 [15] of 0.484 mg/L, an IC50 (µg/mL), pseudovirus neutralization [16] of 0.015 µg/mL and an IC50 (µg/mL), pseudovirus neutralization [17] of 0.557 µg/mL. The IC50 [18] was greater than 50 mg/L, the IC50, pseudovirus neutralization [19] was 0.174 mg/L and the IC50 (µg/mL), pseudovirus neutralization [20] was greater than 50 µg/mL. For the same substance, the IC50 (µg/mL), pseudovirus neutralization [21] was greater than 50 µg/mL, the IC50 (µg/mL), pseudovirus neutralization [22] was 0.05 µg/mL and the IC50, pseudovirus neutralization [23] was greater than 50 mg/L. For the same substance, the IC50 [24] was 0.172 mg/L, the IC50 (µg/mL), pseudovirus neutralization [25] was greater than 50 µg/mL and the IC50 (µg/mL), pseudovirus neutralization [26] was greater than 50 µg/mL. The IC50 (µg/mL), pseudovirus neutralization [27] was 0.002 µg/mL, the IC50 (µg/mL), pseudovirus neutralization [28] was greater than 50 µg/mL and the IC50, pseudovirus neutralization [29] was greater than 50 mg/L. The IC50 (µg/mL), pseudovirus neutralization [30] was greater than 50 µg/mL, the IC50 [31] was 15.1 mg/L and the IC50 [32] was greater than 50 mg/L. For the same substance, the IC50, pseudovirus neutralization [33] was greater than 50 mg/L, the IC50 (µg/mL), pseudovirus neutralization [34] was greater than 50 µg/mL and the IC50 [35] was greater than 50 mg/L. The IC50 [36] was 5.86 mg/L, the IC50 (µg/mL), pseudovirus neutralization [37] was 0.069 µg/mL and the IC50, pseudovirus neutralization [38] was greater than 50 mg/L. It also gave an IC50 (ug/ml), neutralizing activity [39] greater than 10 µg/mL, an IC50, pseudovirus neutralization [40] greater than 50 mg/L and an IC50 (µg/mL), pseudovirus neutralization [41] of 0.058 µg/mL. For the same substance, the IC50, single-round pseudovirus neutralization [42] was 0.447 mg/L, the IC50 (µg/mL), pseudovirus neutralization [43] was greater than 50 µg/mL and the IC50 (µg/mL), pseudovirus neutralization [44] was greater than 50 µg/mL. It also gave an IC50 (µg/mL), pseudovirus neutralization [45] of 1.78 µg/mL, an IC50 (µg/mL), pseudovirus neutralization [46] greater than 50 µg/mL and an IC50 (µg/mL), pseudovirus neutralization [47] of 2.75 µg/mL. The IC50, pseudovirus neutralization [48] was greater than 50 mg/L, the IC50 (µg/mL), pseudovirus neutralization [49] was greater than 50 µg/mL and the IC50 (µg/mL), pseudovirus neutralization [50] was greater than 50 µg/mL. For the same substance, the IC50 (ug/ml), neutralizing activity [51] was greater than 10 µg/mL, the IC50, pseudovirus neutralization [52] was 1.15 mg/L and the IC50 [53] was greater than 50 mg/L. The IC50 (µg/mL), pseudovirus neutralization [54] was 0.014 µg/mL, the IC50 (µg/mL), pseudovirus neutralization [55] was greater than 50 µg/mL and the IC50 [56] was 4.72 mg/L. It also gave an IC50 [57] greater than 50 mg/L, an IC50, pseudovirus neutralization [58] greater than 50 mg/L and an IC50, pseudovirus neutralization [59] of 4 mg/L. For the same substance, the IC50 (µg/mL), pseudovirus neutralization [60] was 3.77 µg/mL, the IC50, pseudovirus neutralization [61] was greater than 50 mg/L and the IC50, pseudovirus neutralization [62] was greater than 50 mg/L. For the same substance, the IC50 [63] was 0.628 mg/L, the IC50, single-round pseudovirus neutralization [64] was 0.006 mg/L and the IC50, pseudovirus neutralization [65] was greater than 50 mg/L. It also gave an IC50 (µg/mL), pseudovirus neutralization [66] of 0.001 µg/mL and an IC50 [67] greater than 50 mg/L.
